# Measured values as given in the RNAGym collection of RNA variant scans (doi:10.7554/elife.80360).
# B1: CPEB3 Ribozyme (parent)
# chain: GGGGGCCACAGCAGAAGCGUUCACGUCGCGGCCCCUGUCAGAUUCUGGUGAAUCUGCGAAUUCUGCUGU
# Variants of: B1
# Experiment: self-cleavage, relative activity (ratio to wild type); higher = more cleavage; co-transcriptional
row,Variant,self-cleavage
1,C27A A51G,0.67
2,C27A A51C,0.494
3,C29A C33G,0.281
4,C29A C33U,0.594
5,C29A C57U,0.247
6,U26G U61C,0.418
7,U26G U61A,0.621
8,G28C G68C,0.147
9,G28U A59C,0.251
10,C27A A59G,0.353
11,C27G U36C,0.168
12,C27G U36G,0.14
13,U26G G48A,0.937
14,U26G G48C,0.959
15,C27G U43G,0.154
16,C27G U43A,0.133
17,C27G C45A,0.17
18,C27G C45U,0.229
19,C29G A42C,0.347
20,C27A U64C,0.343
21,C27A G47A,0.734

row,Variant,self-cleavage
1,C27G G65U,0.164
2,C27G G65C,0.234
3,C27G U55C,0.137
4,G28U C54U,0.178
5,G28U U53C,0.157
6,G28C C35G,0.17
7,G28A C34U,0.244
8,G28A C34G,0.139
9,G28A C39G,0.157
10,G28U C34G,0.219
11,G28U C34U,0.204
12,C27G U64C,0.254
13,C29A U46A,0.845
14,C29A U46C,0.68
15,C27U U36C,0.201
16,G28U U43A,0.135
17,G28U U43G,0.0809
18,C27U G50C,0.272
19,C27G C33U,0.188
20,C27G C33A,0.29
21,C27G U38G,0.255

row,Variant,self-cleavage
1,G28U G37A,0.206
2,U26G U49A,0.918
3,G28U U64C,0.219
4,G28A A52C,0.182
5,G28A A52U,0.276
6,C27A U46C,0.621
7,C27U U67G,0.4
8,G28C C34A,0.127
9,C29G C39G,0.267
10,C29G C39U,0.251
11,C29G C54G,0.246
12,C27U C57U,0.204
13,C27A U43C,0.404
14,C27G G28A,0.147
15,G28C C45U,0.194
16,G28C C45A,0.135
17,G28U G48C,0.169
18,G28U G48U,0.198
19,G28C U69C,0.276
20,G28C U69G,0.301
21,C29A U43G,0.364

row,Variant,self-cleavage
1,C29A U43C,0.465
2,G28A G65A,0.152
3,G28A G65U,0.172
4,C27A A60C,0.23
5,C29A U36G,0.179
6,U26G G37C,0.162
7,G28C G65U,0.16
8,C27U U38G,0.17
9,C27G G58A,0.16
10,C29A A51C,0.534
11,C27A C54G,0.156
12,C27A C54U,0.602
13,C27U G56U,0.197
14,C27G C34A,0.207
15,G28C U67A,0.182
16,U26G G28U,0.178
17,U26G G28A,0.183
18,C27G A40U,0.17
19,C27G A40G,0.243
20,G28A G47A,0.22
21,C29G C45U,0.601
